{"source": "paper PMC3830201", "about": "(2013)", "binders": {"B1": {"name": "GST-Swiprosin-1 fusion protein (wild type) (protein)", "chain": "MATDELATKLSRRLQMEGEGGGETPEQPGLNGAAAAAAGAPDEAAEALGSADCELSAKLLRRADLNQGIGEPQSPSRRVFNPYTEFKEFSRKQIKDMEKMFKQYDAGRDGFIDLMELKLMMEKLGAPQTHLGLKNMIKEVDEDFDSKLSFREFLLIFRKAAAGELQEDSGLCVLARLSEIDVSSEGVKGAKSFFEAKVQAINVSSRFEEEIKAEQEERKKQAEEMKQRKAAFKELQSTFK"}}, "target": "F-actin assembled from rabbit skeletal muscle G-actin (Oryctolagus cuniculus (Rabbit), UniProt P68135)", "assay": "F-actin co-sedimentation", "data": [{"binder": "B1", "values": [{"measurement": "binding result", "value": "binds"}]}]}
